Test results: paper PMC3570547, “An Experimental Verification of the Predicted Effects of Promoter TATA-Box Polymorphisms Associated with Human Diseases on Interactions between the TATA Boxes and TATA-Binding Protein”

B1: CYP2A6 TATA WT (dsDNA)
DNA 1: TTTCAGGCAGTATAAAGGCAAACCAC
DNA 2: GTGGTTTGCCTTTATACTGCCTGAAA
B2: HBB -28A>C (dsDNA)
DNA 1: CAGGGCTGGGCATACAAGTCAGGGCA
DNA 2: TGCCCTGACTTGTATGCCCAGCCCTG
B3: HBD -31A>G (dsDNA)
DNA 1: ACAGGACCAGCGTAAAAGGCAGGGCA
DNA 2: TGCCCTGCCTTTTACGCTGGTCCTGT
B4: TPI -24T>G (dsDNA)
DNA 1: CGCGGCGCTCTATAGAAGTGGGCAGT
DNA 2: ACTGCCCACTTCTATAGAGCGCCGCG
B5: HBB TATA WT (dsDNA)
DNA 1: CAGGGCTGGGCATAAAAGTCAGGGCA
DNA 2: TGCCCTGACTTTTATGCCCAGCCCTG
B6: HBD TATA WT (dsDNA)
DNA 1: ACAGGACCAGCATAAAAGGCAGGGCA
DNA 2: TGCCCTGCCTTTTATGCTGGTCCTGT
B7: globin pseudogene -70T>C (dsDNA)
DNA 1: CTGCCACACCCACATTATCAGAAAAT
DNA 2: ATTTTCTGATAATGTGGGTGTGGCAG
B8: NOS2A TATA WT (dsDNA)
DNA 1: ATGGGGTGAGTATAAATACTTCTTGG
DNA 2: CCAAGAAGTATTTATACTCACCCCAT
B9: IL1B TATA WT (dsDNA)
DNA 1: TTTTGAAAGCCATAAAAACAGCGAGG
DNA 2: CCTCGCTGTTTTTATGGCTTTCAAAA
B10: TF -21C>T (dsDNA)
DNA 1: GCCGGCCCTTTATAGTGCGCGGGGCA
DNA 2: TGCCCCGCGCACTATAAAGGGCCGGC
B11: HBB -28A>G (dsDNA)
DNA 1: CAGGGCTGGGCATAGAAGTCAGGGCA
DNA 2: TGCCCTGACTTCTATGCCCAGCCCTG
B12: TPI TATA WT (dsDNA)
DNA 1: CGCGGCGCTCTATATAAGTGGGCAGT
DNA 2: ACTGCCCACTTATATAGAGCGCCGCG
B13: IL1B -31C>T (dsDNA)
DNA 1: TTTTGAAAGCTATAAAAACAGCGAGG
DNA 2: CCTCGCTGTTTTTATAGCTTTCAAAA
B14: HBB -29A>G (dsDNA)
DNA 1: CAGGGCTGGGCATGAAAGTCAGGGCA
DNA 2: TGCCCTGACTTTCATGCCCAGCCCTG
B15: HBB -30T>C (dsDNA)
DNA 1: CAGGGCTGGGCACAAAAGTCAGGGCA
DNA 2: TGCCCTGACTTTTGTGCCCAGCCCTG
B16: globin pseudogene TATA WT (dsDNA)
DNA 1: CTGCCACACCCACATTATTAGAAAAT
DNA 2: ATTTTCTAATAATGTGGGTGTGGCAG
B17: HBB -27A>T (dsDNA)
DNA 1: CAGGGCTGGGCATAATAGTCAGGGCA
DNA 2: TGCCCTGACTATTATGCCCAGCCCTG
B18: NOS2A -21T>C (dsDNA)
DNA 1: ATGGGGTGAGTATAAATACCTCTTGG
DNA 2: CCAAGAGGTATTTATACTCACCCCAT
B19: SOD1 -27A>G (dsDNA)
DNA 1: AGGTCTGGCCTGTAAAGTAGTCGCGG
DNA 2: CCGCGACTACTTTACAGGCCAGACCT
B20: TF TATA WT (-21C) (dsDNA)
DNA 1: GCCGGCCCTTTATAGCGCGCGGGGCA
DNA 2: TGCCCCGCGCGCTATAAAGGGCCGGC
B21: SOD1 TATA WT (dsDNA)
DNA 1: AGGTCTGGCCTATAAAGTAGTCGCGG
DNA 2: CCGCGACTACTTTATAGGCCAGACCT
B22: CYP2A6 -48T>G (dsDNA)
DNA 1: TTTCAGGCAGTAGAAAGGCAAACCAC
DNA 2: GTGGTTTGCCTTTCTACTGCCTGAAA
B23: HBB -30T>A (dsDNA)
DNA 1: CAGGGCTGGGCAAAAAAGTCAGGGCA
DNA 2: TGCCCTGACTTTTTTGCCCAGCCCTG
B24: MBL2 TATA WT (dsDNA)
DNA 1: CATCTATTTCTATATAGCCTGCACCC
DNA 2: GGGTGCAGGCTATATAGAAATAGATG
B25: MBL2 -35T>C (dsDNA)
DNA 1: CATCTATTTCTACATAGCCTGCACCC
DNA 2: GGGTGCAGGCTATGTAGAAATAGATG
B26: HBB -31A>G (dsDNA)
DNA 1: CAGGGCTGGGCGTAAAAGTCAGGGCA
DNA 2: TGCCCTGACTTTTACGCCCAGCCCTG
B27: FIX TATA WT (dsDNA)
DNA 1: ACAGCTCAGCTTGTACTTTGGTACAA
DNA 2: TTGTACCAAAGTACAAGCTGAGCTGT

The binders below were run against TBP (TATA-binding protein, hTBP) (Homo sapiens, UniProt P20226 1-339) (assay: EMSA; Fixed active TBP (typically 0.3 nM) titrated with 32P dsDNA to equilibrium; buffer, salt, pH and temperature not given in the material). Details: protein: recombinant; label: 32P both strands; blunt.
Chain of TBP (TATA-binding protein, hTBP) (P20226 whole entry): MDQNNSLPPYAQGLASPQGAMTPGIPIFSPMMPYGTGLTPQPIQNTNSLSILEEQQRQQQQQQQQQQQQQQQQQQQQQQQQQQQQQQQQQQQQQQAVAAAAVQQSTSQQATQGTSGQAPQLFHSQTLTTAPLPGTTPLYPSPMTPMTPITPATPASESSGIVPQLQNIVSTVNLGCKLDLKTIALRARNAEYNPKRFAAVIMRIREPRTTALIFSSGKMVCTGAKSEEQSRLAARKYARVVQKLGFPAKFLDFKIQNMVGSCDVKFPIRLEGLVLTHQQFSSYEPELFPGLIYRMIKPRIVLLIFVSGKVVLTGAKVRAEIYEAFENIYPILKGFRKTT

Compared with B1, B2 is 18-fold higher in Kd: 17 ± 4 nM for the first, 300 ± 20 nM for the second.

B3 and B4 are within error of each other in Kd: 120 ± 10 nM for the first, 150 ± 20 nM for the second.

B5 and B6 are within error of each other in Kd: 44 ± 3 nM for the first, 46 ± 5 nM for the second.

First: B7
Second: B8
The Kd of the first is 62-fold higher: 112 ± 6 nM for the first, 1.8 ± 0.2 nM for the second.

B9 and B10 are within error of each other in Kd: 29 ± 4 nM for the first, 26 ± 3 nM for the second.

Compared with B11, B12 is 18-fold lower in Kd: 87 ± 8 nM for the first, 4.8 ± 0.7 nM for the second. The second binds more tightly here.

Going from B13 to B14, the Kd rises from 7 ± 1 nM to 390 ± 20 nM (56-fold).

B15 and B16 are within 1.5-fold of each other in Kd: 111 ± 8 nM for the first, 152 ± 6 nM for the second.

Going from B17 to B18, the Kd falls from 64 ± 3 nM to 1.6 ± 0.3 nM (40-fold). The second binds more tightly here.

Going from B19 to B20, the Kd falls from 170 ± 30 nM to 72 ± 9 nM (2.4-fold).

Going from B21 to B22, the Kd rises from 40 ± 8 nM to 80 ± 20 nM (2-fold).

First: B23
Second: B24
The Kd of the first is 4.1-fold higher: 116 ± 5 nM for the first, 28 ± 4 nM for the second. The second binds more tightly here.

Compared with B25, B26 is 1.7-fold higher in Kd: 58 ± 9 nM for the first, 99 ± 9 nM for the second.

Binder B27 has a Kd of 510 ± 60 nM.
